Measurements published in patent US20120276102A1 (Pfizer, published 2012).

Experiments:
[1] = molecular target: T1, murine IL-21R extracellular domain His-Flag fusion protein (murine, UniProt Q9JHX3 20-237); test: competition ELISA; competitor plate-bound 18A5 IgG
T1 construct: Biotinylated in the ELISAs; also called mIL-21R-H/F; murine IL-21R-H/F
Method: Blocked plates were washed 3× with PBS, and 50 μl/well of scFv/IL-21R mixtures were transferred to the appropriate plates and incubated for 1 hr at RT. Plates were washed 5× with PBS prior to the addition of a 1:6000 dilution of horseradish peroxidase-conjugated streptavidin (Southern Biotech, Birmingham, Ala.) secondary antibody to detect bound biotinylated mIL-21R-H/F. Plates were then incubated for 1 hr at RT and washed 7× with PBS. Signal was developed using 3,3′,5,5′-tetramethylbenzidine (TMB), the reaction stopped with H₂SO₄, and the absorbance read at 450 nm on an ENVISION™ plate reader (Perkin Elmer).

[2] = molecular target: human IL-21R expressed on cells (human, UniProt Q9HBE5 20-538); test: cell-based or functional assay
Chain of human IL-21R expressed on cells (Q9HBE5 20-538 limits assumed): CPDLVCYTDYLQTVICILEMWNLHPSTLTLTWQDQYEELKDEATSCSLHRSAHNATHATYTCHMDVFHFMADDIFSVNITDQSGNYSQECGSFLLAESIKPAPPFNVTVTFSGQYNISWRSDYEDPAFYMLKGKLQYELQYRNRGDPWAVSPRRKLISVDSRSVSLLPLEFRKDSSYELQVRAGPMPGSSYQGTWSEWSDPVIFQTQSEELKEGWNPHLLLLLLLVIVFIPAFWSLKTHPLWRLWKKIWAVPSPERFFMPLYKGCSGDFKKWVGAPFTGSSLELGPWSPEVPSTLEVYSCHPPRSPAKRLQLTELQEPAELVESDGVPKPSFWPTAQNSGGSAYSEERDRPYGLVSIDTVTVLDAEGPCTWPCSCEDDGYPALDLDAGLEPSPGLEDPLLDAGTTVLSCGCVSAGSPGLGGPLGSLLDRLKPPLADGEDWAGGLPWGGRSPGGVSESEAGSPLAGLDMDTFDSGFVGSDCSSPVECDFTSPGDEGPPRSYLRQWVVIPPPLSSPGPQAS

[3] = molecular target: murine IL-21R expressed on cells (murine, UniProt Q9JHX3 20-529); test: cell-based or functional assay

Row | IC50 [1] [nM] | IC50, Human IL-21R-BaF3 Neutralization Assay [2] [nM] | IC50, Human IL-21R-TF1 Neutralization Assay [2] [nM] | IC50, Murine IL-21R-BaF3 Neutralization Assay [3] [nM] | Binder
1 | 14 | 7.7 | 98.1 | 25.7 | scFv H3 (scFv) scFv: QVQLQESGPGLVKTSETLSLTCAVSGYSISSGYYWGWIRQPPGKGLEWIGSISHTGNTYYNPPLKSRVTISVDTSKNQFSLKLSSVTAADTAVYYCARFMGFGRPEYWGKGTLVTVSSGGGGSGGGGSGGGGSALSSELTQDPPVSVALGQTVTLTCQGDSLRTYYASWYQQKSGQAPILLLYGKHKRPSGIPDRFSGSTSGDTASLTITGAQAEDEADYYCNSRDSSGNPHVLFGGGTQLTVL
2 |  | 3.8 | 9.3 |  | scFv H4 (scFv) scFv: QVQLQESGPGLVKTSETLSLTCAVSGYSISSGYYWGWIRQPPGKGLEWIGSISHTGNTYYNPPLKSRVTISVDTSKNQFSLKLSSVTAADTAVYYCARWLGFGRPEYWGKGTLVTVSSGGGGSGGGGSGGGGSALSSELTQDPPVSVALGQTVTLTCQGDSLRTYYASWYQQKSGQAPILLLYGKHKRPSGIPDRFSGSTSGDTASLTITGAQAEDEADYYCNSRDSSGNPHVLFGGGTQLTVL
3 | 8 | 2.1 | ~60 |  | scFv L4 (scFv) scFv: QVQLQESGPGLVKTSETLSLTCAVSGYSISSGYYWGWIRQPPGKGLEWIGSISHTGNTYYNPPLKSRVTISVDTSKNQFSLKLSSVTAADTAVYYCARGGGISRPEYWGKGTLVTVSSGGGGSGGGGSGGGGSALSSELTQDPPVSVALGQTVTLTCQGDSLRTYYASWYQQKSGQAPILLLYGKHKRPSGIPDRFSGSTSGDTASLTITGAQAEDEADYYCSTRSSKGNPHVLFGGGTQLTVL
4 | 100 | 27.6 | ~7 | 13.8 | scFv L3 (scFv) scFv: QVQLQESGPGLVKTSETLSLTCAVSGYSISSGYYWGWIRQPPGKGLEWIGSISHTGNTYYNPPLKSRVTISVDTSKNQFSLKLSSVTAADTAVYYCARGGGISRPEYWGKGTLVTVSSGGGGSGGGGSGGGGSALSSELTQDPPVSVALGQTVTLTCQGDSLRTYYASWYQQKSGQAPILLLYGKHKRPSGIPDRFSGSTSGDTASLTITGAQAEDEADYYCVSRAVVGNPHVLFGGGTQLTVL
5 | 5 | 3.1 | 37.5 | 2.41 | scFv L2 (scFv) scFv: QVQLQESGPGLVKTSETLSLTCAVSGYSISSGYYWGWIRQPPGKGLEWIGSISHTGNTYYNPPLKSRVTISVDTSKNQFSLKLSSVTAADTAVYYCARGGGISRPEYWGKGTLVTVSSGGGGSGGGGSGGGGSALSSELTQDPPVSVALGQTVTLTCQGDSLRTYYASWYQQKSGQAPILLLYGKHKRPSGIPDRFSGSTSGDTASLTITGAQAEDEADYYCVARSVVGNPHVLFGGGTQLTVL
6 | 13 | 13.8 | ~150 |  | scFv H6 (scFv) scFv: QVQLQESGPGLVKTSETLSLTCAVSGYSISSGYYWGWIRQPPGKGLEWIGSISHTGNTYYNPPLKSRVTISVDTSKNQFSLKLSSVTAADTAVYYCARFFGFGRPEYWGKGTLVTVSSGGGGSGGGGSGGGGSALSSELTQDPPVSVALGQTVTLTCQGDSLRTYYASWYQQKSGQAPILLLYGKHKRPSGIPDRFSGSTSGDTASLTITGAQAEDEADYYCNSRDSSGNPHVLFGGGTQLTVL
7 | 7 | 4.1 | 51.3 | 715 | scFv L8 (scFv) scFv: QVQLQESGPGLVKTSETLSLTCAVSGYSISSGYYWGWIRQPPGKGLEWIGSISHTGNTYYNPPLKSRVTISVDTSKNQFSLKLSSVTAADTAVYYCARGGGISRPEYWGKGTLVTVSSGGGGSGGGGSGGGGSALSSELTQDPPVSVALGQTVTLTCQGDSLRTYYASWYQQKSGQAPILLLYGKHKRPSGIPDRFSGSTSGDTASLTITGAQAEDEADYYCTTRSTQGNPHVLFGGGTQLTVL
8 | 7 | 3.7 | ~55 | 28.8 | scFv L1 (scFv) scFv: QVQLQESGPGLVKTSETLSLTCAVSGYSISSGYYWGWIRQPPGKGLEWIGSISHTGNTYYNPPLKSRVTISVDTSKNQFSLKLSSVTAADTAVYYCARGGGISRPEYWGKGTLVTVSSGGGGSGGGGSGGGGSALSSELTQDPPVSVALGQTVTLTCQGDSLRTYYASWYQQKSGQAPILLLYGKHKRPSGIPDRFSGSTSGDTASLTITGAQAEDEADYYCASRSVSGNPHVLFGGGTQLTVL
9 | 7 | 2.1 | ~20 | 38.5 | scFv L5 (scFv) scFv: QVQLQESGPGLVKTSETLSLTCAVSGYSISSGYYWGWIRQPPGKGLEWIGSISHTGNTYYNPPLKSRVTISVDTSKNQFSLKLSSVTAADTAVYYCARGGGISRPEYWGKGTLVTVSSGGGGSGGGGSGGGGSALSSELTQDPPVSVALGQTVTLTCQGDSLRTYYASWYQQKSGQAPILLLYGKHKRPSGIPDRFSGSTSGDTASLTITGAQAEDEADYYCASRSSKGNPHVLFGGGTQLTVL
10 | 12 | 1.5 | 15.3 |  | scFv L23 (scFv) scFv: QVQLQESGPGLVKTSETLSLTCAVSGYSISSGYYWGWIRQPPGKGLEWIGSISHTGNTYYNPPLKSRVTISVDTSKNQFSLKLSSVTAADTAVYYCARGGGISRPEYWGKGTLVTVSSGGGGSGGGGSGGGGSALSSELTQDPPVSVALGQTVTLTCQGDSLRTYYASWYQQKSGQAPILLLYGKHKRPSGIPDRFSGSTSGDTASLTITGAQAEDEADYYCSARSVRGNPHVLFGGGTQLTVL
11 | 6 | 4.2 | 38.3 | 10 | scFv L11 (scFv) scFv: QVQLQESGPGLVKTSETLSLTCAVSGYSISSGYYWGWIRQPPGKGLEWIGSISHTGNTYYNPPLKSRVTISVDTSKNQFSLKLSSVTAADTAVYYCARGGGISRPEYWGKGTLVTVSSGGGGSGGGGSGGGGSALSSELTQDPPVSVALGQTVTLTCQGDSLRTYYASWYQQKSGQAPILLLYGKHKRPSGIPDRFSGSTSGDTASLTITGAQAEDEADYYCSSRSRHGNPHVLFGGGTQLTVL
12 | 7 | 2.8 | 27.7 | 3.61 | scFv L9 (scFv) scFv: QVQLQESGPGLVKTSETLSLTCAVSGYSISSGYYWGWIRQPPGKGLEWIGSISHTGNTYYNPPLKSRVTISVDTSKNQFSLKLSSVTAADTAVYYCARGGGISRPEYWGKGTLVTVSSGGGGSGGGGSGGGGSALSSELTQDPPVSVALGQTVTLTCQGDSLRTYYASWYQQKSGQAPILLLYGKHKRPSGIPDRFSGSTSGDTASLTITGAQAEDEADYYCVARSNKGNPHVLFGGGTQLTVL
13 | 17 | 7.9 | 178 | 53.7 | scFv H5 (scFv) scFv: QVQLQESGPGLVKTSETLSLTCAVSGYSISSGYYWGWIRQPPGKGLEWIGSISHTGNTYYNPPLKSRVTISVDTSKNQFSLKLSSVTAADTAVYYCARFLGFGRPEYWGKGTLVTVSSGGGGSGGGGSGGGGSALSSELTQDPPVSVALGQTVTLTCQGDSLRTYYASWYQQKSGQAPILLLYGKHKRPSGIPDRFSGSTSGDTASLTITGAQAEDEADYYCNSRDSSGNPHVLFGGGTQLTVL
14 | 4 | 5.9 | ~150 | 0.29 | scFv L6 (scFv) scFv: QVQLQESGPGLVKTSETLSLTCAVSGYSISSGYYWGWIRQPPGKGLEWIGSISHTGNTYYNPPLKSRVTISVDTSKNQFSLKLSSVTAADTAVYYCARGGGISRPEYWGKGTLVTVSSGGGGSGGGGSGGGGSALSSELTQDPPVSVALGQTVTLTCQGDSLRTYYASWYQQKSGQAPILLLYGKHKRPSGIPDRFSGSTSGDTASLTITGAQAEDEADYYCMSRSIWGNPHVLFGGGTQLTVL
15 | 8 | 2.6 | 54.9 | 87.8 | scFv L12 (scFv) scFv: QVQLQESGPGLVKTSETLSLTCAVSGYSISSGYYWGWIRQPPGKGLEWIGSISHTGNTYYNPPLKSRVTISVDTSKNQFSLKLSSVTAADTAVYYCARGGGISRPEYWGKGTLVTVSSGGGGSGGGGSGGGGSALSSELTQDPPVSVALGQTVTLTCQGDSLRTYYASWYQQKSGQAPILLLYGKHKRPSGIPDRFSGSTSGDTASLTITGAQAEDEADYYCVARGTRGNPHVLFGGGTQLTVL
16 | 40 | 15.1 | 7 |  | scFv L10 (scFv) scFv: QVQLQESGPGLVKTSETLSLTCAVSGYSISSGYYWGWIRQPPGKGLEWIGSISHTGNTYYNPPLKSRVTISVDTSKNQFSLKLSSVTAADTAVYYCARGGGISRPEYWGKGTLVTVSSGGGGSGGGGSGGGGSALSSELTQDPPVSVALGQTVTLTCQGDSLRTYYASWYQQKSGQAPILLLYGKHKRPSGIPDRFSGSTSGDTASLTITGAQAEDEADYYCISRSIYGNPHVLFGGGTQLTVL
